Data taken from article PMC6220978, “Induced conformational changes activate the peptidoglycan synthase PBP1B” (Molecular Microbiology, 2018).

Assays:
Experiment in all cases: SPR; PBP1B versions immobilised to the chip surface; LpoB injected from 19.5 nM to 10 μM; apparent KD by non-linear regression, at least three independent experiments
Details in all cases: both partners purified
PBP1B^Δ158–160 = target: T1, PBP1B^Δ158–160 (E. coli, UniProt P02919 46-844, Δ158–160)
T1 construct: PBP1B, E. coli, residues 46-844 with residues 158-160 of Loop 1 removed, made by mutagenesis of pDML924; also called Loop 1 truncation; source: E. coli BL21(DE3), purified (membrane extract, HisTrap, thrombin, HiTrap SP ion exchange)
T1 sequence (looked up): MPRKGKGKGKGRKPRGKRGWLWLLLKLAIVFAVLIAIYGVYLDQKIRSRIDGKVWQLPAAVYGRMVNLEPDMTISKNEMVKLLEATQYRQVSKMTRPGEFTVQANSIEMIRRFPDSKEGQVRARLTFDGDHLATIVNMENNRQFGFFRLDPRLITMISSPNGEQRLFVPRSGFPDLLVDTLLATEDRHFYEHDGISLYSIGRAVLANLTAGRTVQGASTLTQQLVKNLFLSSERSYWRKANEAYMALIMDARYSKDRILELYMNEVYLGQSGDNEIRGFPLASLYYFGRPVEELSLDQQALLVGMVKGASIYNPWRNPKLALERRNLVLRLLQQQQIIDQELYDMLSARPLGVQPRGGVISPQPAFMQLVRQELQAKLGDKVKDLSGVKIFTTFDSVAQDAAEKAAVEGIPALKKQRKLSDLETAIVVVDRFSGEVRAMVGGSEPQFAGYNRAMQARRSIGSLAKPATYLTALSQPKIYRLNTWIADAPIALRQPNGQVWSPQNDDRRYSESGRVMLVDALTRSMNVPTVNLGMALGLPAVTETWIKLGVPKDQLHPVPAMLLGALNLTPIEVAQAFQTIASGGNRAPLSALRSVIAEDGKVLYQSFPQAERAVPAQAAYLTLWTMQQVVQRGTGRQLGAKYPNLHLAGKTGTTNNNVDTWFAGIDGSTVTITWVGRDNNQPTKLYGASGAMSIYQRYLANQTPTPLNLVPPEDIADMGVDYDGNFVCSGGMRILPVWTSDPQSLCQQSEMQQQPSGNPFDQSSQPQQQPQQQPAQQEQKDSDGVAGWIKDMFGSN

PBP1B R157A = target: T2, PBP1B R157A (E. coli, UniProt P02919 46-844, R157A)
T2 construct: PBP1B, E. coli, residues 46-844, made by mutagenesis of pDML924; source: E. coli BL21(DE3), purified (membrane extract, HisTrap, thrombin, HiTrap SP ion exchange)
T2 sequence (looked up): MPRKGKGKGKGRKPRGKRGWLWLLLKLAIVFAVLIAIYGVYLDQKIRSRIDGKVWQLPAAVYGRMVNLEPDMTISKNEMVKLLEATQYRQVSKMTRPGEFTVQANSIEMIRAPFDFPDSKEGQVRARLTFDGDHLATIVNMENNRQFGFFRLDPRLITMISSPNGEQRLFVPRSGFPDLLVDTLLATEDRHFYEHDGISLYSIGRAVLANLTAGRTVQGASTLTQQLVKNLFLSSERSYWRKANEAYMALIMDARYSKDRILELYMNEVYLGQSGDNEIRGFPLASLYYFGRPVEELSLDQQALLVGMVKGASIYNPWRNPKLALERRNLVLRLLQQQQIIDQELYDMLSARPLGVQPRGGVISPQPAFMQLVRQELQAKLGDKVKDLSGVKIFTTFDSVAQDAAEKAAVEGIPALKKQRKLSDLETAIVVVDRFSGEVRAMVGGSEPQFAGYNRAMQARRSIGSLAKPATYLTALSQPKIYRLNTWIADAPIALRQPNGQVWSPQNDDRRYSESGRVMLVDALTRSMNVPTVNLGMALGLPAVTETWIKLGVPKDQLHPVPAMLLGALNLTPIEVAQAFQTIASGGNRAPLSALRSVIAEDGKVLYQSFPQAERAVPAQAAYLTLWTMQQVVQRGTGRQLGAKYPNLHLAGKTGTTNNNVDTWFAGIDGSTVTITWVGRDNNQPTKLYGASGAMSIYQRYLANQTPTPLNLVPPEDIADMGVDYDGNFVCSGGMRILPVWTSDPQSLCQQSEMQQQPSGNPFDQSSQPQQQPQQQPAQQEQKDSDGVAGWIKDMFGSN

PBP1B P162C/I644C = target: T3, PBP1B P162C/I644C (E. coli, UniProt P02919 46-844, P162C | I644C)
T3 construct: PBP1B, E. coli, residues 46-844, made by mutagenesis of pDML924; Disulphide bridge between C162 and C644 (no free thiol groups detected); reduced in the SPR assay with 2 mM TCEP; source: E. coli BL21(DE3), purified (membrane extract, HisTrap, thrombin, HiTrap SP ion exchange)
T3 sequence (looked up): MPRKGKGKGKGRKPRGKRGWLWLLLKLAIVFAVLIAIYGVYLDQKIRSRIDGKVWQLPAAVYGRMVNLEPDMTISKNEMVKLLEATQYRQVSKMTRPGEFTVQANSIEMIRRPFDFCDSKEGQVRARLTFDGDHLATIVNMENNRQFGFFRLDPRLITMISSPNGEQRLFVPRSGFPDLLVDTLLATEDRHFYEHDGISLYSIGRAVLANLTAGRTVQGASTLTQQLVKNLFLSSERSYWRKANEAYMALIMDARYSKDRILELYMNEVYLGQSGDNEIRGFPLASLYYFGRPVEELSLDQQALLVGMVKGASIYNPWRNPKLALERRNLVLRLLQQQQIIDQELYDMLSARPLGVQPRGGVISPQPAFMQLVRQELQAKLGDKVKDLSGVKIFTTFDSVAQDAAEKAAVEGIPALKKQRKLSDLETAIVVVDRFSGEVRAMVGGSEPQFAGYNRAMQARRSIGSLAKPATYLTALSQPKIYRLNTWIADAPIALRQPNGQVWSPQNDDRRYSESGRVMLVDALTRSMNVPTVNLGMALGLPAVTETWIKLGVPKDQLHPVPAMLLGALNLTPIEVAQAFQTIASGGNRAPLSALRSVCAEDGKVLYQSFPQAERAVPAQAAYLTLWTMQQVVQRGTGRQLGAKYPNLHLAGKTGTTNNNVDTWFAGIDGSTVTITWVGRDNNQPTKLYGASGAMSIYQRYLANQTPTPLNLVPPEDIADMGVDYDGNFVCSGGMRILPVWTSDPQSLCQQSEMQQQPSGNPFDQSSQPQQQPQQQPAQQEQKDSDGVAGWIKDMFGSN

Kd (PBP1B^Δ158–160): 1900 nM
Kd (PBP1B R157A): 505 nM
Kd (PBP1B P162C/I644C): 213 nM
B1: LpoB (natural protein, E. coli)
chain: VGQREPAPVEEVKPAPEQPAEPQQPVPTVPSVPTIPQQPGPIEHEDQTAPPAPHIRHYDWNGAMQPMVSKMLGADGVTAGSVLLVDSVNNRTNGSLNAAEATETLRNALANNGKFTLVSAQQLSMAKQQLGLSPQDSLGTRSKAIGIARNVGAHYVLYSSASGNVNAPTLQMQLMLVQTGEIIWSGKGAVSQQ
notes: LpoB, E. coli; also called lipoprotein LpoB; source: E. coli BL21(DE3), purified (HisTrap, Superdex 200), as in Egan et al. 2014
